This assay addresses human TREM2 extracellular domain (ECD) (Homo sapiens, UniProt Q9NZC2).

Chain of human TREM2 extracellular domain (ECD) (Q9NZC2 19-174): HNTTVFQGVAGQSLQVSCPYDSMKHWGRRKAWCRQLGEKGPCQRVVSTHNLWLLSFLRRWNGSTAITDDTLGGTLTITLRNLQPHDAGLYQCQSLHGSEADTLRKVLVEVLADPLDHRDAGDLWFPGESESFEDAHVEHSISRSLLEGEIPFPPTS

B1: R18-11-01 (antibody, V domains shown)
VH: AVQLVESGGGLVQPKESLKISCAASGFTFINAAIYWVRQAPGKGLEWVARIRTKPDNYATYYADSVKGRFTISRDDSKSMVYLQMHNLKTEDTAMYYCTAATTGIKFDYWGQGVMVTVSA
VL: DIVMTQSPSSLAVSAGETVTIDCKSSQSLLYSGNQKTYLAWYQQKPGQSPKLLIYWASTRQSGVPDRFIGSGSGTDFTLTISSVQAEDLAIYYCQQYYDTPLTFGSGTKLEIK
In the case of B1, the binding result is reported as “binds”.

B2: R18-11-05 (antibody, V domains shown)
VH: AVQLVESGGGLVQPKASLKISCVASGFTFSKNAMYWVRQAPGKGLEWVARIRTKPNNYAAYYADSVKGRFTISRDDSESMVYLQMDNLKTEDTAMYYCTAGDFNSPFDFWGQGVMVTVSS
VL: DIVMTQSPSSLAVSAGETVTIDCKSSQSLLYSGNQKTYLAWYQQKPGQSPKLLIYWASTRQSGVPDRFIGSGSGTDFTLTISSVQAEDLAIYYCQQYYDTPLTFGSGTKLEIK
Consider B2, for which the binding result is given as “binds”.

B3: R18-11-06 (antibody, V domains shown)
VH: AVQLVESGGGLVQPKESLKISCAASGFTFSNAAMYWVRQAPGKGLEWVARIRTQPNNYATYYADSVKGRFTISRDDSKSVVYLQMDNLKTADTAMYYCTAGYGYNLFDYWGQGVMVTVSS
VL: DIVMTQSPSSLAVSAGETVTIDCKSSQSLLYSGNQKTYLAWYQQKPGQSPKLLIYWASTRQSGVPDRFIGSGSGTDFTLTISSVQAEDLAIYYCQQYYDTPLTFGSGTKLEIK
Consider B3, for which the binding result was “binds”.

B4: R18-11-02 (antibody, V domains shown)
VH: AVQLVESGGGLVQPKESLKISCAASGFTFSNAAMYWVRQAPGKGLEWVARIRTKPNNYATYYADSMKGRFTISRDDSKSMVYLQMGNLKTEDTAMYYCTAELITTAFDYWGQGVMVTVSS
VL: DIVMTQSPSSLAVSAGETVTIDCKSSQSLLYSGNQKTYLAWYQQKPGQSPKLLIYWASTRQSGVPDRFIGSGSGTDFTLTISSVQAEDLAIYYCQQYYDTPLTFGSGTKLEIK
Take B4: the binding result is “binds”.

B5: R18-11-08 (antibody, V domains shown)
VH: AVQLVESGGGLVQPKESLKISCAASGFTFSNAAMYWVRQAPGKGLEWVARIRTKPNNYATYYADSVKGRFTISRDDSKSMVYLQMDNLKTEDTAMYYCTAAYYSGPFAYWGQGTLVTVSS
VL: DIVMTQSPSSLAVSAGETVTIDCKSSQSLLYSGNQKTYLAWYQQKPGQSPKLLIYWASTRQSGVPDRFIGSGSGTDFTLTISSVQAEDLAIYYCQQYYDTPLTFGSGTKLEIK
As to B5, the binding result is “binds”.

B6: R18-11-04 (antibody, V domains shown)
VH: AVQLVESGGGLVQPKESLKISCAASGFTFSNAAMYWVRQAPGKGLEWVARIRTQPNNYATYYADSVKGRFTISRDDAKSMVYLQMDNLKTEDTAMYYCTAGTVEVTSTWWGQGVMVTVSS
VL: DIVMTQSPSSLAVSAGETVTIDCKSSQSLLYSGNQKTYLAWYQQKPGQSPKLLIYWASTRQSGVPDRFIGSGSGTDFTLTISSVQAEDLAIYYCQQYYDTPLTFGSGTKLEIK
With B6, the binding result is “binds”.

B7: R18-11-11 (antibody, V domains shown)
VH: AVQLVESGGGLVQPKESLKISCAASGFTFSNAAMHWVRQAPGKGLEWVARIRTRPNNYATYYADSVKGRFTISRDDSKSMVYLQMDNLKTEDTAMYYCTAGTGSSPFAYWGQGTLVTVSS
VL: DIVMTQSPSSLAVSAGETVTIDCKSSQSLLYSGNQKTYLAWYQQKPGQSPKLLIYWASTRQSGVPDRFIGSGSGTDFTLTISSVQAEDLAIYYCQQYYDTPLTFGSGTKLEIK
Regarding B7, the binding result was “binds”.

B8: R18-11-10 (antibody, V domains shown)
VH: AVQLVESGGGVVRPKESLRISCAASGFTFSNVAMYWVRQAPGKGLEWVARIRTKPNNYATNYADSVKGRFTISRDDSNSMVNLQMENLKTEDTAMYYCTAVGGHNWFAYWGQGTLVTVSS
VL: DIVMTQSPSSLAVSAGETVTIDCKSSQSLLYSGNQKTYLAWYQQKPGQSPKLLIYWASTRQSGVPDRFIGSGSGTDFTLTISSVQAEDLAIYYCQQYYDTPLTFGSGTKLEIK
Take B8: the binding result is listed as “binds”.

B9: R18-11-07 (antibody, V domains shown)
VH: AVQLVESGGGLVQPKESLRISCAASGFTFSNAAMYWVRQAPGKGLEWVARIRTKPNSYAPYYADSVRGRFTISRDDSKSMVYLQMDNLKTEDTAMYYCTAGGNSGYSDYWGQGVMVTVSS
VL: DIVMTQSPSSLAVSAGETVTIDCKSSQSLLYSGNQKTYLAWYQQKPGQSPKLLIYWASTRQSGVPDRFIGSGSGTDFTLTISSVQAEDLAIYYCQQYYDTPLTFGSGTKLEIK
Take B9: the binding result was “binds”.

B10: R18-12-18 (antibody, V domains shown)
VH: AVQLVESGGGLVQPKESLKISCAASGFTFRNAAMFWVRQAPGKGLEWVARIRTKPNNFATYYADSVKGRFTISRDDSKSMVYLQMDNLKTEDTAMYYCTGFYNDGAPFDYWGQGTLVTVSS
VL: DIVMTQSPSSLAVSAGETVTIDCKSSQSLLYSGNQKTYLAWYQQKPGQSPKLLIYWASTRQSGVPDRFIGSGSGTDFTLTISSVQAEDLAIYYCQQYYDTPLTFGSGTKLEIK
As to B10, the binding result is reported as “binds”.

B11: R18-11-03 (antibody, V domains shown)
VH: AVQLVESGGGLVRPKESLKISCAASGFTFSNAAMYWVRQAPGKGLEWVARIRSKPNNYATHYADSVKGRFIISRDDSKGMVYLQMDNLKTEDTAKYYCTAAGGGYGFDDWGQGVMVTVSS
VL: DIVMTQSPSSLAVSAGETVTIDCKSSQSLLYSGNQKTYLAWYQQKPGQSPKLLIYWASTRQSGVPDRFIGSGSGTDFTLTISSVQAEDLAIYYCQQYYDTPLTFGSGTKLEIK
In the case of B11, the binding result is “binds”.

B12: R18-12-17 (antibody, V domains shown)
VH: AVQLVESGGGLVKPKESLKISCAASGFTFSNAAMYWVRQAPGKGLDWVARIRTKPYNYATFYADSVKGRFTISRDDSKNMVYLQMDNLKTEDTAVYYCTTDGEPRPRFAYWGQGTLVTVSS
VL: DIVMTQSPSSLAVSAGETVTIDCKSSQSLLYSGNQKTYLAWYQQKPGQSPKLLIYWASTRQSGVPDRFIGSGSGTDFTLTISSVQAEDLAIYYCQQYYDTPLTFGSGTKLEIK
For the molecule B12, the binding result was “binds”.

B13: R18-11-12 (antibody, V domains shown)
VH: AVQLVESGGGLVQPKESVKISCAASGFTFSNAAMYWVRQAPGKGLEWIARIRSKPHNHATYYADSVKGRFTISRDDSESMVYLQMDNLKTEDTAMYYCTSDTGPNWFTYWGQGTLVTVSS
VL: DIVMTQSPSSLAVSAGETVTIDCKSSQSLLYSGNQKTYLAWYQQKPGQSPKLLIYWASTRQSGVPDRFIGSGSGTDFTLTISSVQAEDLAIYYCQQYYDTPLTFGSGTKLEIK
For the molecule B13, the binding result is on record as “binds”.

B14: R18-11-13 (antibody, V domains shown)
VH: AVQLVESGGGLVQPKESLKISCAASGFTFSNVAMYWVRQAPRKGLEWVARIRTKPNNYATYYADSVKGRFTISRDDSKSMVYLQMDNLKTDDTAMYYCTAGVYYGSMDAWGQGTSVTVSS
VL: DIVMTQSPSSLAVSAGETVTIDCKSSQSLLYSGNQKTYLAWYQQKPGQSPKLLIYWASTRQSGVPDRFIGSGSGTDFTLTISSVQAEDLAIYYCQQYYDTPLTFGSGTKLEIK
As to B14, the binding result was “binds”.

B15: R18-12-14 (antibody, V domains shown)
VH: AVQLVESGGGLVQPKESLKISCAVSGFTFTNAAMYWVRQAPGKGLEWIARIRTQPNNYATYYADSVRGRFTTSRDDSKSMVYLQMDNLKTEDTAMYYCTAGRATGTPFDYWGQGVMVTVSS
VL: DIVMTQSPSSLAVSAGETVTIDCKSSQSLLYSGNQKTYLAWYQQKPGQSPKLLIYWASTRQSGVPDRFIGSGSGTDFTLTISSVQAEDLAIYYCQQYYDTPLTFGSGTKLEIK
As for B15, the binding result was “binds”.

These data come from publication PMC11437124 (Nature Communications, 2024).
